Source: publication PMC3575409, “Identification of a Novel Protein-Protein Interaction Motif Mediating Interaction of GPCR-Associated Sorting Proteins with G Protein-Coupled Receptors” (PLoS ONE, 2013)

Experiments:
[1] = tested on: MyrPalm-mYFP in HEK293 cells; test: Co-immunoprecipitation, MyrPalm-mYFP (negative control); assay type: cell-based; conditions: 48 h expression, anti-GFP immunoprecipitation
Method: (§1) HEK293 cells stably expressing N-terminal GFP-tagged ADRB1, ADRB2, CALCR and M1 or MyrPalm-mYFP were transfected with pcDNA3.1 containing the sequence for a central domain of GASP-1 (AA 380 to 1073) using JetPEI reagent (polyplus transfection) according to the instructions from the manufacturer. After 48 h of expression, cells were washed twice with PBS and lysed in a buffer containing 10 mM Tris-HCl, pH 7.4, 150 mM NaCl, 25 mM KCl, 0.3% Triton X-100 and cOmplete protease inhibitors (Roche) for 1 h at 4°C under agitation. 500 µg of cleared lysates were incubated with 1 µg of a mouse monoclonal anti-GFP antibody (Invitrogen) overnight at 4°C, followed by an incubation with 40 µl of protein A-Sepharose beads for an additional 2 h at 4°C. Beads were then washed five times in lysis buffer and precipitates were resolved on an 8% gel by SDS–PAGE and electrotransferred to immobilon-P membranes (Millipore) in 50 mM Tris-boric acid for 1 h at 300 mA. Membranes were blocked with 5% non-fat powder milk in TBS-Tween (50 mM Tris-HCl pH 8, 150 mM NaCl, 0.4% Tween-20) for 1 h at room temperature. […] For immunodetection of GASP or GFP-tagged receptors directly from cell lysates, 10 µg of proteins were loaded on SDS gels and analyzed following the procedure described above. Finally, membranes were washed in TBS-Tween and detected by chemiluminescence (ECL prime, GE Healthcare). […]

GST-fused DOR C-tail = test: GST-pull down, DOR C-tail; assay type: binding; conditions: percent of full-length GASP-1 interaction; three independent experiments
In short: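 Radiolabelled GASPs ([35S]-Met, coupled transcription/translation) were pulled down by bead-immobilized GST-receptor C-tails, 1 h, 4°C, in 20 mM Tris-HCl pH 7.4, 150 mM NaCl, 1% Triton X-100, 10% glycerol. After five washes, retained GASP was imaged by phosphorimager; values are means of ≥3 experiments.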

[2] = tested on: GFP-tagged M1 receptor in HEK293 cells; test: Co-immunoprecipitation, M1; assay type: cell-based; conditions: 48 h expression, anti-GFP immunoprecipitation
Method: as §1

[3] = tested on: GFP-tagged ADRB2 in HEK293 cells; test: Co-immunoprecipitation, ADRB2; assay type: cell-based; conditions: 48 h expression, anti-GFP immunoprecipitation
Method: as §1

[4] = tested on: GFP-tagged CALCR in HEK293 cells; test: Co-immunoprecipitation, CALCR; assay type: cell-based; conditions: 48 h expression, anti-GFP immunoprecipitation
Method: as §1

B1: central domain of GASP-1: central portion of GASP-1 (AA 380 to 1073) that contains 19 GASP motif (protein)
chain: MTKEEAKTKARARAKQEARSEEEALIGTWFWATDESSMADEASIESSLQVEDESIIGSWFWTEEEASMGTGASSKSRPRTDGERIGDSLFGAREKTSMKTGAEATSESILAADDEQVIIGSWFWAGEEVNQEAEEETIFGSWFWVIDAASVESGVGVSCESRTRSEEEEVIGPWFWSGEQVDIEAGIGEEARPGAEEETIFGSWFWAENQTYMDCRAETSCDTMQGAEEEEPIIGSWFWTRVEACVEGDVNSKSSLEDKEEAMIPCFGAKEEVSMKHGTGVRCRFMAGAEETNNKSCFWAEKEPCMYPAGGGSWKSRPEEEEDIVNSWFWSRKYTKPEAIIGSWLWATEESNIDGTGEKAKLLTEEETIINSWFWKEDEAISEATDREESRPEAEEGDIIGSWFWAGEEDRLEPAAETREEDRLAAEKEGIVGSWFGAREETIRREAGSCSKSSPKAEEEEVIIGSWFWEEEASPEAVAGVGFESKPGTEEEEITVGSWFWPEEEASIQAGSQAVEEMESETEEETIFGSWFWDGKEVSEEAGPCCVSKPEDDEEMIVESWFWSRDKAIKETGTVATCESKPENEEGAIVGSWFEAEDEVDNRTDNGSNCGSRTLADEDEAIVGSWFWAGDEAHFESNPSPVFRAICRSTCSVEQEPDPSRRPQSWEEVTVQFKPGPWGRVGFPSISPFRFPKE
modifications: left off: GST, N-terminal, kept
notes: central portion of GASP-1 (AA 380 to 1073) that contains 19 GASP motif
In the case of B1, the “co-immunoprecipitation with MyrPalm-mYFP” value [1] is reported as “no co-immunoprecipation was observed”, the “interaction with DOR C-tail relative to full-length GASP-1” value (GST-fused DOR C-tail) is reported as about 30% and the “co-immunoprecipitation with M1” value [2] is reported as “co-immunoprecipitated”. For the same molecule, the “co-immunoprecipitation with ADRB2” value [3] was “co-immunoprecipitated” and the “co-immunoprecipitation with CALCR” value [4] was “co-immunoprecipitated”.
